pKd: −log10 of the molar value.

Experiment [1] concerns the target SARS-COV-2 RBD Beta variant (SARS-CoV-2).
Experiment [2] addresses SARS-COV-2 RBD Lambda variant (SARS-CoV-2).
The target of experiment [3] is SARS-COV-2 RBD Gamma variant (SARS-CoV-2).
The target of experiment [4] is SARS-COV-2 RBD Mu variant (SARS-CoV-2).

huACE2-Fc, sequence (Q9BYF1 18-740): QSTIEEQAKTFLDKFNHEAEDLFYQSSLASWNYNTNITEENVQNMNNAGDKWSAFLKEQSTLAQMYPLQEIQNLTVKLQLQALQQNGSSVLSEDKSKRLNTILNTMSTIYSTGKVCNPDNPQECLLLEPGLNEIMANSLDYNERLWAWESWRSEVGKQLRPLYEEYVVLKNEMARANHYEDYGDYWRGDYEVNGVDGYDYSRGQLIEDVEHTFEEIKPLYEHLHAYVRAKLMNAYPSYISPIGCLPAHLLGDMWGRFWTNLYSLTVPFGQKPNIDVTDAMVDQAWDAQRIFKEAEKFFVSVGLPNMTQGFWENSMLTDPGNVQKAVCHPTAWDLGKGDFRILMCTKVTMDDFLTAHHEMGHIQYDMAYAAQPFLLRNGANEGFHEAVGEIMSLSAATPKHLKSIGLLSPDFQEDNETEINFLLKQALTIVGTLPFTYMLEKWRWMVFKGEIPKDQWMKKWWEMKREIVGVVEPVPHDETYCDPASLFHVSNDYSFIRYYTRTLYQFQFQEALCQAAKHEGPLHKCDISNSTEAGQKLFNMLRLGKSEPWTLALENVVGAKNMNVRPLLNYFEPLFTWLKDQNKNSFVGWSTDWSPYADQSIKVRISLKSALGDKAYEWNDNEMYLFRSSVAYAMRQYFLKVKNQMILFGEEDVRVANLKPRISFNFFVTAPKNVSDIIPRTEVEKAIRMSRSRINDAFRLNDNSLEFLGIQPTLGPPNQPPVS

Consider “huACE2-Fc (from UniProt Q9BYF1) (Fc fusion)”, for which the pKd was 7.35 in experiment [1], 8.27 in experiment [2], 8.44 in experiment [3] and 7.89 in experiment [4].

Broadly, the pKd is the negative decadic logarithm of the Kd, by convention in mol/L. The low end stands for a large Kd, the high end for a small Kd.

These data come from patent US12091446.
